Measured values as given in US12428492B2, “Chimeric antigen receptors that bind to prostate specific membrane antigen” (Albert-Ludwigs-Universitaet Freiburg, priority 2019, dated 2025).

Experiments:
PSMA-expressing cells = PSMA-expressing cells (Homo sapiens, UniProt Q04609); conditions: cited from earlier work
[1] = system: PSMA positive C4-2 and LNCaP tumor cells; assay: Antigen-specific activation (CD69) of CAR expressing Jurkat cells by PSMA positive tumor cells; format: cell-based
Experimental: Panel (C) presents the antigen-specific-activation profile, CAR expressing Jurkat cells were stimulated for 24 h at an 1:1 effector-to-target ratio with either PSMA positive, PD-L1 negative C4-2 tumor cells (PSMA+/PDL1−), or PSMA positive, PD-L1 positive LNCaP tumor cells (PSMA+/PDL1+). As a negative control, CAR cells were co-cultured with PSMA negative DU145 tumor cells (PSMA−). Following 24 h stimulation, cells were harvested and activation profile was assessed by evaluating the percentage of cells that are positive for the activation marker CD69. Statistically significant differences are indicated by ****(P<0.001).
Panel (D) depicts the characterization of employed prostate cancer cell lines. The extent of PSMA target antigen expression (left) and PD-L1 (CD274) expression (right) was assessed on C4-2, LNCaP and DU145 prostate cell lines. For flow cytometric analysis, cells were either stained with 3/F11 1 antibody (anti-PSMA) or an anti-CD274 antibody. UT, untransduced T cells; PD-L1, Programmed cell death ligand 1; PSMA; prostate specific membrane antigen. As shown in panel D (left), both C4-2 and LNCaP tumor cells express the PSMA antigen while the DU145 is negative for the PSMA antigen. […]
The antigen-specific activation of transduced Jurkat T cells was measured by monitoring the expression of the activation marker CD69 upon antigen stimulation FIG. 9C. […]

PSMA-expressing cells, sequence (Q04609 whole entry): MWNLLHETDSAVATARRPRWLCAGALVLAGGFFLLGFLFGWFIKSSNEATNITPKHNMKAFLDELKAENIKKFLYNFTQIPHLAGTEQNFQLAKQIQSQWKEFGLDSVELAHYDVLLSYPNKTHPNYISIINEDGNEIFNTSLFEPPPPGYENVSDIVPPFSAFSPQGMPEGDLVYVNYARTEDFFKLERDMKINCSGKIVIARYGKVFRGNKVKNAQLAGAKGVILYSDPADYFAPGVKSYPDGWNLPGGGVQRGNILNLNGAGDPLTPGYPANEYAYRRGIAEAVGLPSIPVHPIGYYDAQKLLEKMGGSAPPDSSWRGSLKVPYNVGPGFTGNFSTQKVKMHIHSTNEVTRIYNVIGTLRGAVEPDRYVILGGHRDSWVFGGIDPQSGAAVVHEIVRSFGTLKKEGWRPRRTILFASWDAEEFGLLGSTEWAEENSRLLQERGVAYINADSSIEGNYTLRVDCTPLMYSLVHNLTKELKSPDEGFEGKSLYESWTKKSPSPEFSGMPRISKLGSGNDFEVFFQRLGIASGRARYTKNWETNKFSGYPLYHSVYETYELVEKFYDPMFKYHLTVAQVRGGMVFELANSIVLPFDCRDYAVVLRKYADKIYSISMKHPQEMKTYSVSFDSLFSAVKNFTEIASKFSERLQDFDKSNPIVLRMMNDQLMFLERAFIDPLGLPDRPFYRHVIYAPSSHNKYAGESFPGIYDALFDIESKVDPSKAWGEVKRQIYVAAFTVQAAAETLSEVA

B1: A5: single-chain variable fragment generated by phage display from mAb 3/A12; SEQ ID NO:42 (protein, listed as Mus musculus)
scFv: DVKLVESGGGLVKPGESLKLSCIASGFTFSDYYMYWVRQTPEKRLEWVAIISDGGYYTYYSDIIKGRFTISRDNAKNNLYLQMSSLKSEDTAMYYCTRGFPLLRHGAMDYWGLGTSVTVSSGGGGSGGGGSGGGGSDIQMTQSPKFMSTSVGDRVSVTCKASQNVDTNVAWYQQKPGQSPKALIYSASYRYSDVPDRFTGSESGTDFTLTISNVQSEDLAEYFCQQYDSYPYTFGGGTKLEIK
modifications: murine scFv A5
PSMA-expressing cells
  Kd: ~33 nM

B2: A5-based CAR: 2nd generation anti-PSMA CAR: scFv A5, Fc IgG1 hinge, transmembrane domain, CD28 costimulatory domain, CD3ζ; SEQ ID NO:39 (protein)
chain: MDFQVQIFSFLLISASVIMSRDVKLVESGGGLVKPGESLKLSCIASGFTFSDYYMYWVRQTPEKRLEWVAIISDGGYYTYYSDIIKGRFTISRDNAKNNLYLQMSSLKSEDTAMYYCTRGFPLLRHGAMDYWGLGTSVTVSSGGGGSGGGGSGGGGSDIQMTQSPKFMSTSVGDRVSVTCKASQNVDTNVAWYQQKPGQSPKALIYSASYRYSDVPDRFTGSESGTDFTLTISNVQSEDLAEYFCQQYDSYPYTFGGGTKLEIKSDPAEPKSPDKTHTCPPCPAPPVAGPSVFLFPPKPKDTLMIARTPEVTCVVVDVSHEDPEVKFNWYVDGVEVHNAKTKPREEQYNSTYRVVSVLTVLHQDWLNGKEYKCKVSNKALPAPIEKTISKAKGQPREPQVYTLPPSRDELTKNQVSLTCLVKGFYPSDIAVEWESNGQPENNYKTTPPVLDSDGSFFLYSKLTVDKSRWQQGNVFSCSVMHEALHNHYTQKSLSLSPGKKDPKFWVLVVVGGVLACYSLLVTVAFIIFWVRSKRSRLLHSDYMNMTPRRPGPTRKHYQAYAAARDFAAYRSLRVKFSRSADAPAYQQGQNQLYNELNLGRREEYDVLDKRRGRDPEMGGKPRRKNPQEGLYNELQKDKMAEAYSEIGMKGERRRGKGHDGLYQGLSTATKDTYDALHMQALPPR
modifications: A5CAR28
[1]; 24 h, 1:1 effector-to-target ratio, C4-2 or LNCaP
  CD69-positive cells: about 70%
[1]; CD69
  activation of Jurkat cells upon antigen-specific sensitization: massive activation
